Experiments:
[1] = target: Recombinant human VEGFR1 (human) (UniProt P17948); test: SPR
[2] = target: Recombinant human VEGFR2 (human) (UniProt P35968); test: SPR
UniProt P35968, sequence (P35968 20-764): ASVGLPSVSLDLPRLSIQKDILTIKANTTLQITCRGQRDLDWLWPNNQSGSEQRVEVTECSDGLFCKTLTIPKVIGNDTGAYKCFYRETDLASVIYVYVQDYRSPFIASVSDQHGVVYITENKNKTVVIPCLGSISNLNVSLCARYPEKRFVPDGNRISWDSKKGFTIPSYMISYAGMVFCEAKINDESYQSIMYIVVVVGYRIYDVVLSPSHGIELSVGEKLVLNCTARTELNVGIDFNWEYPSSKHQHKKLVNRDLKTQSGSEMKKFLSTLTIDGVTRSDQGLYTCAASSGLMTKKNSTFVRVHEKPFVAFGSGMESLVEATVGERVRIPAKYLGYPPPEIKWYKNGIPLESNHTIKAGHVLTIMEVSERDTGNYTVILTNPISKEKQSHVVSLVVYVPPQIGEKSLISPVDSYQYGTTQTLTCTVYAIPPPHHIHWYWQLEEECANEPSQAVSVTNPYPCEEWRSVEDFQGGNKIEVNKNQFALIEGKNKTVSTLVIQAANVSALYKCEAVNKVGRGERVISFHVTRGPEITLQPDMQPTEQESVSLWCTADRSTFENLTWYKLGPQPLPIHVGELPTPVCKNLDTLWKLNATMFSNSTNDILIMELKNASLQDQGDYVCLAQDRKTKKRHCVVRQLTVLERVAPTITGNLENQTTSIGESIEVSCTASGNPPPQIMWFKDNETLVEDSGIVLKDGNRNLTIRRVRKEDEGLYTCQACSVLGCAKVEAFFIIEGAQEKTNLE

UniProt P17948, sequence (P17948 27-758): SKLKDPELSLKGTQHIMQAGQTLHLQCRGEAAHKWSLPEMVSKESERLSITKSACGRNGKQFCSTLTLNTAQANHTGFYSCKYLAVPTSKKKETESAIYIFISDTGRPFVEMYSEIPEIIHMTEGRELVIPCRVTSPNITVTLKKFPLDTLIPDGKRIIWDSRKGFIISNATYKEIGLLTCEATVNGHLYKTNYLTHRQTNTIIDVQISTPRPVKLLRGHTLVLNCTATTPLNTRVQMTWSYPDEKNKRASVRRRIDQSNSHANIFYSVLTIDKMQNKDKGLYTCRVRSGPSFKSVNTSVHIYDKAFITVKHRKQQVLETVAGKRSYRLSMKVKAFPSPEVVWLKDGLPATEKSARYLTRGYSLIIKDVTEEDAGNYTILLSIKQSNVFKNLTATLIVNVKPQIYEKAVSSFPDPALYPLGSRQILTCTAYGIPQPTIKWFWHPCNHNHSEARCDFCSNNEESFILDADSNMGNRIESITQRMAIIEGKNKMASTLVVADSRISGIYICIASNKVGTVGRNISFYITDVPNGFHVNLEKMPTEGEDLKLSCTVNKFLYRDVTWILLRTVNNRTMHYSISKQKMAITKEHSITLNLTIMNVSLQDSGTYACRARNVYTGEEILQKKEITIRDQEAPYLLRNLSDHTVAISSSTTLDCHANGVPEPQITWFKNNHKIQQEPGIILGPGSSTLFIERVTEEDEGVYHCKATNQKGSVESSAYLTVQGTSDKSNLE

Kd [1]: 0.0231 nM
Kd [2]: 0.398 nM
Substance: Recombinant human VEGFA (from UniProt P15692 1-395) (ligand)
